Here are results for seven molecules from doi:10.1101/609503 (bioRxiv, 2019).

The term Kd denotes a measure of binding affinity in units of concentration. Low values mean higher affinity, high ones lower affinity. Usually stoichiometry N stands for the number of molecules, sites or subunits per partner or assembly.

Sequences and labels used below:
T1: PBP1A (E. coli, UniProt P02918 1-850, NT647 RED-NHS dye on amines (fl-PBP1A))
T1 sequence (looked up): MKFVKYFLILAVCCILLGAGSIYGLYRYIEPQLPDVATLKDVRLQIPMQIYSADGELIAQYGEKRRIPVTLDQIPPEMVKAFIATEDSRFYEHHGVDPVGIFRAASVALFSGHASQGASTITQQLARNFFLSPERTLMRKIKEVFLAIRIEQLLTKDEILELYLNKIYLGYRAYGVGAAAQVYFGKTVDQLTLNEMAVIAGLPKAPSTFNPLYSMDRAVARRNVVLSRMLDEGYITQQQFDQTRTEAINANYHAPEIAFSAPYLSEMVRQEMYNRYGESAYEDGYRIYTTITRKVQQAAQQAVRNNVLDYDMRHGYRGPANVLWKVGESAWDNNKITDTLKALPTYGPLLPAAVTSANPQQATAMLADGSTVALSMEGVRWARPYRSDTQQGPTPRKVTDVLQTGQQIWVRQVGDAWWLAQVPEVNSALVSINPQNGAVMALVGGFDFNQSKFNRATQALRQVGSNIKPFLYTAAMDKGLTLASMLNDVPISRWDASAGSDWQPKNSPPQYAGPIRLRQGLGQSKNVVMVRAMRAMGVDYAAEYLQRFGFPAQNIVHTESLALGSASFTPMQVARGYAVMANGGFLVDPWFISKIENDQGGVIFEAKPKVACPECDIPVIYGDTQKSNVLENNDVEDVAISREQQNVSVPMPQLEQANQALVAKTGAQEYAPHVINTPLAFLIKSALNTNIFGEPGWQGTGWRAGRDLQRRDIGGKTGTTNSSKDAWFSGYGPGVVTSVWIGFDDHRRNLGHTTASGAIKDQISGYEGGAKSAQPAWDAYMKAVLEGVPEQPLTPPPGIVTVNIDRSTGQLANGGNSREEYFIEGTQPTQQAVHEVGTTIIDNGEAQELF

T2: MepM (E. coli, UniProt P0AFS9 41-440)
T2 sequence (looked up): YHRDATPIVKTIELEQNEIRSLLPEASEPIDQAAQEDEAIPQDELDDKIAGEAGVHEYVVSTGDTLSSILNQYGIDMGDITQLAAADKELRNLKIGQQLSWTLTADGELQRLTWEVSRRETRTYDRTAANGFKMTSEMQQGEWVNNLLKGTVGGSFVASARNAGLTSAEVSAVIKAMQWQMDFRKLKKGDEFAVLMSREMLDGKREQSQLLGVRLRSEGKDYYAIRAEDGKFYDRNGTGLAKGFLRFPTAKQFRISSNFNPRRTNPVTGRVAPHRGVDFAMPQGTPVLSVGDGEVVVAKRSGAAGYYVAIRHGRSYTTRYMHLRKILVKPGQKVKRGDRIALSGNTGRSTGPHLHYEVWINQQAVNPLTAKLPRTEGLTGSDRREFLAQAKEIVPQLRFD

B1: PBP4 (native) (enzyme, E. coli, UniProt P24228 21-477, looked up)
chain: ANVDEYITQLPAGANLALMVQKVGASAPAIDYHSQQMALPASTQKVITALAALIQLGPDFRFTTTLETKGNVENGVLKGDLVARFGADPTLKRQDIRNMVATLKKSGVNQIDGNVLIDTSIFASHDKAPGWPWNDMTQCFSAPPAAAIVDRNCFSVSLYSAPKPGDMAFIRVASYYPVTMFSQVRTLPRGSAEAQYCELDVVPGDLNRFTLTGCLPQRSEPLPLAFAVQDGASYAGAILKDELKQAGITWSGTLLRQTQVNEPGTVVASKQSAPLHDLLKIMLKKSDNMIADTVFRMIGHARFNVPGTWRAGSDAVRQILRQQAGVDIGNTIIADGSGLSRHNLIAPATMMQVLQYIAQHDNELNFISMLPLAGYDGSLQYRAGLHQAGVDGKVSAKTGSLQGVYNLAGFITTASGQRMAFVQYLSGYAVEPADQRNRRIPLVRFESRLYKDIYQNN
B2: LpoA (natural protein, E. coli, UniProt P45464 27-678, looked up)
chain: CGTHTPDQSTAYMQGTAQADSAFYLQQMQQSSDDTRINWQLLAIRALVKEGKTGQAVELFNQLPQELNDAQRREKTLLAVEIKLAQKDFAGAQNLLAKITPADLEQNQQARYWQAKIDASQGRPSIDLLRALIAQEPLLGAKEKQQNIDATWQALSSMTQEQANTLVINADENILQGWLDLQRVWFDNRNDPDMMKAGIADWQKRYPNNPGAKMLPTQLVNVKAFKPASTNKIALLLPLNGQAAVFGRTIQQGFEAAKNIGTQPVAAQVAAAPAADVAEQPQPQTVDGVASPAQASVSDLTGEQPAAQPVPVSAPATSTAAVSAPANPSAELKIYDTSSQPLSQILSQVQQDGASIVVGPLLKNNVEELLKSNTPLNVLALNQPENIENRVNICYFALSPEDEARDAARHIRDQGKQAPLVLIPRSSLGDRVANAFAQEWQKLGGGTVLQQKFGSTSELRAGVNGGSGIALTGSPITLRATTDSGMTTNNPTLQTTPTDDQFTNNGGRVDAVYIVATPGEIAFIKPMIAMRNGSQSGATLYASSRSAQGTAGPDFRLEMEGLQYSEIPMLAGGNLPLMQQALSAVNNDYSLARMYAMGVDAWSLANHFSQMRQVQGFEINGNTGSLTANPDCVINRNLSWLQYQQGQVVPVS
modifications: NT647 RED-Maleimide dye on cysteines where used as the labelled partner (fl-LpoA)
B3: PBP7 (enzyme, E. coli, UniProt P0AFI5 26-310, looked up)
chain: KTAAATTASQPEIASGSAMIVDLNTNKVIYSNHPDLVRPIASISKLMTAMVVLDARLPLDEKLKVDISQTPEMKGVYSRVRLNSEISRKDMLLLALMSSENRAAASLAHHYPGGYKAFIKAMNAKAKSLGMNNTRFVEPTGLSVHNVSTARDLTKLLIASKQYPLIGQLSTTREDMATFSNPTYTLPFRNTNHLVYRDNWNIQLTKTGFTNAAGHCLVMRTVINNKPVALVVMDAFGKYTHFADASRLRTWIETGKVMPVPAAALSYKKQKAAQMAAAGQTAQND
modifications: NT647 RED-NHS dye on amines where used as the labelled partner (fl-PBP7)
B4: His-PBP7 (enzyme, E. coli, UniProt P0AFI5 26-310, looked up)
chain: B3 chain
B5: MepS(C68A) (enzyme, E. coli, UniProt P0AFV4 27-188, looked up)
chain: CSANNTAKNMHPETRAVGSETSSLQASQDEFENLVRNVDVKSRIMDQYADWKGVRYRLGGSTKKGIDASGFVQRTFREQFGLELPRSTYEQQEMGKSVSRSNLRTGDLVLFRAGSTGRHVGIYIGNNQFVHASTSSGVIISSMNEPYWKKRYNEARRVLSRS
B6: NlpI (soluble version, residues 19-294) (natural protein, E. coli, UniProt P0AFB1 19-294, looked up)
chain: CSNTSWRKSEVLAVPLQPTLQQEVILARMEQILASRALTDDERAQLLYERGVLYDSLGLRALARNDFSQALAIRPDMPEVFNYLGIYLTQAGNFDAAYEAFDSVLELDPTYNYAHLNRGIALYYGGRDKLAQDDLLAFYQDDPNDPFRSLWLYLAEQKLDEKQAKEVLKQHFEKSDKEQWGWNIVEFYLGNISEQTLMERLKADATDNTSLAEHLSETNFYLGKYYLSLGDLDSATALFKLAVANNVHNFVEHRYALLELSLLGQDQDDLAESDQQ
modifications: NT647 RED-NHS dye on amines where used as the labelled partner (fl-NlpI)
B7: tagless NlpI (natural protein)
chain: B6 chain

In one series the target is T1, PBP1A. The series can be described thus: MST.
Series [1] addresses preformed NlpI-PBP4 complex (E. coli, UniProt P0AFB1 19-294; P24228 21-477). The series can be described thus: MST.
In series [2] the target is B1. The series can be described thus: MST.
The target in series [3] is B1. The series can be described thus: pull-down.
The series “AUC” concerns the molecule itself. The series can be described thus: AUC.
The series “MST” concerns the molecule itself. Put plainly: MST.
Another series concerns the target T2, MepM. Put plainly: MST.
The series “His-PBP7” has as its target B4. The series can be described thus: pull-down.

B1: the Kd with PBP1A is 106 nM.

Regarding B2, the binding result in series [1] is “binds”. As for B3, in the series with PBP4 (native) [2], the binding result is reported as “binds”. In the series with PBP1A, this molecule came in with a Kd of 101 nM. Take B4: the binding result with PBP4 (native) [3] was “binds”.

As to B5, the affinity in the series with PBP1A, expressed as Kd, was 91 nM. With B6, the “stoichiometry N” value in “AUC” came to 2. In addition, the values for the Kd in the series “MST”, in the series with MepM and with PBP4 (native) [2] were 126 nM, 152 nM and 177 nM, respectively. B7: the binding result with His-PBP7 was “binds”.
